B1: CASP6 (parent)
chain: TCADRDNLTRRFSDLGFEVKCFND
B2: FCHO1 (parent)
chain: FSDPSQSDPETKDFWLNMAALTEA

Variants of: B1
Assay: protein stability index of a GFP-peptide fusion (GPS, HEK-293T) (PSI 1-6); higher = more stable
Settings: c terminus: a fixed tail appended
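Further: lentivirally expressed fusions sorted by FACS into six bins by GFP to DsRed ratio, PSI derived from sequencing read proportions per bin multiplied by bin number.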

Protein stability index, by site and new letter:
G16: V 1.92; R 3.13; M 2.14; C 3.18; N 3.61; A 2.99; E 3.83; L 1.89; H 2.84; Y 2.27; P 3.54; Q 3.31; W 1.93; F 2.03; S 3.26; K 2.68; D 3.33; T 3.04; I 1.92
F17: C 3.36; P 4.04; N 4.26; H 3.47; T 3.75; S 4.17; K 3.37; Q 4.29; L 4.16; I 3.54; V 3.61; E 4.52; D 4.8; G 4.34; A 3.7; M 3.58; W 2.44; R 2.95; Y 2.62
D14: C 2.91; W 1.97; R 2.45; L 2.5; M 1.97; K 3.36; Y 2.46; G 3.46; N 3.8; F 2.07; Q 2.93; S 2.46; A 3.23; H 2.4; I 2.79; P 2.47; E 3.34; T 2.27; V 2.43
V19: F 2.69; W 2.76; P 4.38; Y 3.5; M 3.49; S 3.8; G 4.08; Q 3.85; N 3.9; K 3.94; D 4.93; R 3.48; E 4.31; H 3.36; A 3.62; I 3.44; T 4.24; C 1.95; L 2.57
N23: Y 2.34; K 3.41; H 2.71; L 3.8; A 3.52; V 2.81; P 3.61; M 2.98; W 1.41; F 2.51; G 3.23; R 3.89; Q 3.12; C 1.8; I 2.49; D 3.41; T 3.28; S 3.66; E 4.66
E18: D 3.86; N 3.44; M 2.22; P 3.49; T 3.05; R 3.14; K 3.3; F 1.78; Y 2.29; W 2.55; S 2.89; H 2.48; A 3.25; Q 3.1; C 2.76; V 2.82; I 2.65; G 2.87
F22: Y 3.98; K 4.72; D 4.95; Q 4.15; W 3.28; T 4.73; L 3.89; C 3.83; I 3.9; E 4.46; R 3.73; V 3.93; A 4.54; S 3.84; H 3.86; P 4.32; N 4.58; G 3.37; M 3.96
L15: N 3.94; R 3.27; Y 3.02; A 3.16; C 2.58; Q 3.43; T 4.13; F 3.07; I 2.91; G 3.69; V 3.15; S 4.02; P 4.59; M 3.85; E 4.57; W 2.75; D 3.92; H 3.65; K 4.11
K20: M 2.57; H 2.89; V 2.83; S 3.17; R 3.32; N 3.75; Q 3.37; I 2.42; C 2.75; T 3.15; L 3; D 4.14; P 3.58; G 3.54; E 3.6; A 3.76; F 2.87; Y 2.2; W 2.56
D24: R 2.67; V 1.23; N 2.97; T 2.54; H 2.95; G 2.66; F 2.11; Y 2.04; M 2.6; L 2.17; C 2.41; Q 3.24; P 3.24; A 2.21; E 2.94; W 2.14; I 1.87; S 2.57; K 3.02
C21: Q 4.05; W 2.63; T 3.98; D 4.17; V 2.67; I 2.52; S 4.01; H 3.72; R 3.72; K 4.2; A 3.53; F 2.16; G 3.5; M 3.2; P 3.17; L 2.85; N 3.82; Y 2.97; E 4.3

Variants of: B2
Assay: as above
Settings: c terminus: a fixed tail appended

Protein stability index of substitutions, site by site:
D3: P 2.4; Y 1.78; K 1.48; G 1.74; L 1.74; E 2.73; Q 2.08; I 1.71; M 1.96; W 2.72; A 1.45; R 2.06; S 2.38; H 1.69; F 2.1; V 1.45; T 1.74; C 2.23; N 2.02
S2: G 2.32; K 4.22; C 1.69; H 1.99; F 2.89; V 1.93; M 3.5; N 1.53; P 3.02; A 1.7; L 2.65; I 2.8; T 2.11; Y 3.28; W 2.93; D 4.53; Q 2.4; R 3.79; E 4.62
Q6: N 2.56; E 3.35; W 1.75; I 2.4; A 2.91; F 2.65; K 2.52; H 2.59; R 2.44; T 2.68; C 2.64; L 2.55; M 2.66; D 3.3; S 2.66; P 3.16; V 2.85; G 2.25; Y 1.81
F1: R 3.73; M 4.18; E 4.97; W 4.1; L 4.25; P 4.8; D 5.36; N 4.52; S 4.74; H 4.7; K 4.42; I 4.11; V 4.86; C 4.02; Y 3.26; A 4.73; T 4.87; Q 4.72; G 4.86
S7: C 2.9; L 2.65; E 3.69; A 3.37; N 2.86; I 2.38; G 2.6; D 3.73; F 2.63; M 3.55; H 3.39; K 2.8
P4: V 2.65; W 1.85; H 2.16; F 2.16; M 2.21; D 3.49; C 1.99; A 2.81; Q 2.67; Y 1.85; E 3.37; R 2.02; I 3.33; K 2.04; G 2.38; T 2.23; S 2.26; L 2.45; N 2.04
S5: W 1.74; R 2.21; E 4.46; C 2.6; P 2.94; Y 2.45; Q 3.21; F 2.27; G 2.66; V 2.54; H 2.87; T 2.84; M 3.35; K 2.94; D 3.93; A 3.03; L 2.84; I 2.74; N 2.79

From the supplement of paper PMC10567573
